Data on two substances can be found in US20090233850A1.

Experiment [1] addresses recombinant monomeric HIV-1 YU2 gp120, produced in Drosophila S2 cells (HIV-1 YU2) (UniProt P35961). Nature of the experiment: ELISA, 100 ng YU2 gp120 adsorbed on the plate, serial dilutions of CVN, detection with polyclonal anti-CVN, BSA background subtracted. (In general: An ELISA detects its analyte on a solid surface through an enzyme-linked reagent.)
The target is the same in experiment [2]. The experiment is described as follows: competition ELISA on plate-adsorbed YU2 gp120; competitor mAb 2G12 at 50 ug/ml; percent of control without CVN.
For experiment [3] the target is unchanged. Nature of the experiment: SPR, Biacore 3000, from the response at 300 nM against the 33 RU expected for 1:1. For orientation: Surface plasmon resonance follows binding to a sensor surface in real time, without labels.
The target is the same in experiment [4]. Nature of the experiment: SPR, Biacore 3000, about 250 RU YU2 gp120 amine-coupled to CM5 chip, CVN in flow, 2B6R reference cell.
In experiment [5] the target is gp120 on HIV-1 BaL (R5) virus (HIV-1 BaL). The experiment is described as follows: cell-based or functional assay.

Turning to “cyanovirin-N (CVN), recombinant, periplasmic expression in E. coli, hexa-histidine tagged (from UniProt P81180 1-101)”, in experiment [1], the EC50 (read off the curve) (in general, the concentration that produces a half-maximal response) worked out at 10 nM. The IC50 (read off the curve) in experiment [2] worked out at 30 nM. Also, the binding stoichiometry (CVN:gp120) in experiment [3] stood at 3. Also, the SPR response at 300 nM in experiment [4] turned out to be 95 RU.
Take “unlinked CVN and 12p1 (non-covalent mixture) (from UniProt P81180 1-101)”: in experiment [5], the boost of efficacy (% inhibition of HIV-1 BaL) of the mixture against CVN alone at the two lowest concentrations, 12p1 at 16-31 uM turned out to be 2 fold; the synergy index of the combination of CVN and 12p1, inhibition of HIV-1 BaL replication in PM-1 cells (gp120 ELISA after 7 days) was 0.3 to 0.5.
